Columns and labels:
HeLa Kyoto [1] = assay: solubility change mitosis vs G1/S (difference of NP-40 vs SDS log2 ratios) (log2 ratio difference); higher = more soluble in mitosis
HeLa Kyoto [2] = assay: solubility in G1/S (NP-40 vs SDS abundance) (log2 ratio); higher = more soluble; conditions: cell cycle stage: G1/S
HeLa Kyoto [3] = assay: thermal stability score vs G1/S (z-score of summed log2 fold changes over temperatures); higher = more thermally stable than in G1/S
HeLa Kyoto [4] = assay: melting temperature (median over replicates), in situ; higher = more thermally stable
[5] = cell cycle stage: early G1 (4.5 h after nocodazole release)
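For melting temperature (median over replicates), in situ in this document: HeLa Kyoto cells synchronized by double thymidine or nocodazole block, proteins quantified by TMT10plex mass spectrometry, three independent biological replicates.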
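For solubility change mitosis vs G1/S (difference of NP-40 vs SDS log2 ratios) in this document: synchronized HeLa Kyoto cells (double thymidine block for G1/S, nocodazole release for mitosis), protein amounts in NP-40 versus SDS lysates quantified by mass spectrometry, three biological replicates.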
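For solubility in G1/S (NP-40 vs SDS abundance) in this document: HeLa Kyoto cells arrested at G1/S by double thymidine block, proteins quantified by TMT10plex mass spectrometry in mild NP-40 versus SDS extracts, three biological replicates.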
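For thermal stability score vs G1/S (z-score of summed log2 fold changes over temperatures) in this document: synchronized HeLa Kyoto cells, proteins quantified by TMT10plex mass spectrometry, three biological replicates, mitosis taken 0.5 h after nocodazole release, G1/S directly after double thymidine block.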

| Sequence | solubility change mitosis (log2) (HeLa Kyoto [1]) | solubility in G1/S (log2) (HeLa Kyoto [2]) | thermal stability score (HeLa Kyoto [3]; [5]) | thermal stability score (HeLa Kyoto [3]; cell cycle stage: mitosis) | melting temperature (HeLa Kyoto [4]; cell cycle stage: G1/S) [°C] | melting temperature (HeLa Kyoto [4]; cell cycle stage: mitosis) [°C] |
| --- | --- | --- | --- | --- | --- | --- |
| MVSVINTVDTSHEDMIHDAQMDYYGTRLATCSSDRSVKIFDVRNGGQILIADLRGHEGPVWQVAWAHPMYGNILASCSYDRKVIIWREENGTWEKSHEHAGHDSSVNSVCWAPHDYGLILACGSSDGAISLLTYTGEGQWEVKKINNAHTIGCNAVSWAPAVVPGSLIDHPSGQKPNYIKRFASGGCDNLIKLWKEEEDGQWKEEQKLEAHSDWVRDVAWAPSIGLPTSTIASCSQDGRVFIWTCDDASSNTWSPKLLHKFNDVVWHVSWSITANILAVSGGDNKVTLWKESVDGQWVCISDVNKGQGSVSASVTEGQQNEQ [SEC13] | -0.09 | -0.204 | -0.768 | -0.265 | 50.5 | 50.4 |
| MASPQLCRALVSAQWVAEALRAPRAGQPLQLLDASWYLPKLGRDARREFEERHIPGAAFFDIDQCSDRTSPYDHMLPGAEHFAEYAGRLGVGAATHVVIYDASDQGLYSAPRVWWMFRAFGHHAVSLLDGGLRHWLRQNLPLSSGKSQPAPAEFRAQLDPAFIKTYEDIKENLESRRFQVVDSRATGRFRGTEPEPRDGIEPGHIPGTVNIPFTDFLSQEGLEKSPEEIRHLFQEKKVDLSKPLVATCGSGVTACHVALGAYLCGKPDVPIYDGSWVEWYMRARPEDVISEGRGKTH [MPST] | -0.0783 | 0.45 | 3.35 | 0.97 | 50.1 | 50.5 |
| MSALEWYAHKSLGDGIFWIQERFYESGNRANIWLVRGSEQDVVIDTGLGLRSLPEYLYSSGLLQDREAKEDAARRPLLAVATHVHFDHSGGLYQFDRVAVHHAEAEALARGDNFETVTWLSDSEVVRTPSPGWRARQFRVQAVQPTLILQDGDVINLGDRQLTVMHMPGHSRGSICLHDKDRKILFSGDVVYDGSLIDWLPYSRISDYVGTCERLIELVDRGLVEKVLPGHFNTFGAERLFRLASNYISKAGICHKVSTFAMRSLASLALRVTNSRTSP [MBLAC2] | 0.0124 | -0.203 | -1.94 | -1.79 | 55.4 | 54.6 |
| MEDAGGGEETPAPEAPHPPQLAPPEEQGLLFQEETIDLGGDEFGSEENETASEGSSPLADKLNEHMMESVLISDSPNSEGDAGDLGRVRDEAEPGGEGDPGPEPAGTPSPSGEADGDCAPEDAAPSSGGAPRQDAAREVPGSEAARPEQEPPVAEPVPVCTIFSQRAPPASGDGFEPQMVKSPSFGGASEASARTPPQVVQPSPSLSTFFGDTAASHSLASDFFDSFTTSAFISVSNPGAGSPAPASPPPLAVPGTEGRPEPVAMRGPQAAAPPASPEPFAHIQAVFAGSDDPFATALSMSEMDRRNDAWLPGEATRGVLRAVATQQRGAVFVDKENLTMPGLRFDNIQGDAVKDLMLRFLGEKAAAKRQVLNADSVEQSFVGLKQLISCRNWRAAVDLCGRLLTAHGQGYGKSGLLTSHTTDSLQLWFVRLALLVKLGLFQNAEMEFEPFGNLDQPDLYYEYYPHVYPGRRGSMVPFSMRILHAELQQYLGNPQESLDRLHKVKTVCSKILANLEQGLAEDGGMSSVTQEGRQASIRLWRSRLGRVMYSMANCLLLMKDYVLAVEAYHSVIKYYPEQEPQLLSGIGRISLQIGDIKTAEKYFQDVEKVTQKLDGLQGKIMVLMNSAFLHLGQNNFAEAHRFFTEILRMDPRNAVANNNAAVCLLYLGKLKDSLRQLEAMVQQDPRHYLHESVLFNLTTMYELESSRSMQKKQALLEAVAGKEGDSFNTQCLKLA [TRAPPC12] | -0.258 | 0.188 | 0.55 | 0.59 | 50.1 | 49.2 |
| MEGGPAVCCQDPRAELVERVAAIDVTHLEEADGGPEPTRNGVDPPPRARAASVIPGSTSRLLPARPSLSARKLSLQERPAGSYLEAQAGPYATGPASHISPRAWRRPTIESHHVAISDAEDCVQLNQYKLQSEIGKGAYGVVRLAYNESEDRHYAMKVLSKKKLLKQYGFPRRPPPRGSQAAQGGPAKQLLPLERVYQEIAILKKLDHVNVVKLIEVLDDPAEDNLYLVFDLLRKGPVMEVPCDKPFSEEQARLYLRDVILGLEYLHCQKIVHRDIKPSNLLLGDDGHVKIADFGVSNQFEGNDAQLSSTAGTPAFMAPEAISDSGQSFSGKALDVWATGVTLYCFVYGKCPFIDDFILALHRKIKNEPVVFPEEPEISEELKDLILKMLDKNPETRIGVPDIKLHPWVTKNGEEPLPSEEEHCSVVEVTEEEVKNSVRLIPSWTTVILVKSMLRKRSFGNPFEPQARREERSMSAPGNLLVKEGFGEGGKSPELPGVQEDEAAS [CAMKK1] | 0.147 | 0.186 | -0.286 | 0.129 |  | 50.4 |

Source: the supplement of paper PMC5998384
